# T1: W90A
# T1 construct: also called hCD27 W90A
# T1 receptor: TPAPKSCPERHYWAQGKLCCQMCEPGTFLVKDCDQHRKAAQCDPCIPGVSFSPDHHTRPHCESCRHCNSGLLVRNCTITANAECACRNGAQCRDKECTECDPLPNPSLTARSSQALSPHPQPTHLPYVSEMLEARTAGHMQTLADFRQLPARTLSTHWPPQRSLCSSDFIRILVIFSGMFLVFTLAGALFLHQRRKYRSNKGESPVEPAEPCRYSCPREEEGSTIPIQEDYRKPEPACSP
# T2: G89A
# T2 construct: also called hCD27 G89A
# T2 receptor: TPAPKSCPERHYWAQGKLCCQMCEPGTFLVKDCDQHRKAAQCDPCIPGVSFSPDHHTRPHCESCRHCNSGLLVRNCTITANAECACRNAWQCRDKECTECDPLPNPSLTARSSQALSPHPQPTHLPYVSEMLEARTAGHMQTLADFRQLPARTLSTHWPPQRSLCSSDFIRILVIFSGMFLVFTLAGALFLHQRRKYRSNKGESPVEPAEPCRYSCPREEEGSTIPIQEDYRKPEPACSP
# T3: Q41A
# T3 construct: also called hCD27 Q41A
# T3 receptor: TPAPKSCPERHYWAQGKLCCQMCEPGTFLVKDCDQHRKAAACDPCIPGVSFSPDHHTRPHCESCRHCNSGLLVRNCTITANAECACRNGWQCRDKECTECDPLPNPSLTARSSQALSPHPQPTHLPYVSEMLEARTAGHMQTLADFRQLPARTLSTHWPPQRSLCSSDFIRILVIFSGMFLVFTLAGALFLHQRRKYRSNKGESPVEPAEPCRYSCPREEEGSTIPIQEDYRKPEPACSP
# T4: H60A
# T4 construct: also called hCD27 H60A
# T4 receptor: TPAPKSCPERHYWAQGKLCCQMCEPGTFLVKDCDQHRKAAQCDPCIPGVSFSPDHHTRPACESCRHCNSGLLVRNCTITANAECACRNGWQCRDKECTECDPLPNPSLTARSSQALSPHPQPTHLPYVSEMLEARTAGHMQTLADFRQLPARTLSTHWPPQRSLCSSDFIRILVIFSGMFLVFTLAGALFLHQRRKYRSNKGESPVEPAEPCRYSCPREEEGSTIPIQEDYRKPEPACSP
# T5: R93A
# T5 construct: also called hCD27 R93A
# T5 receptor: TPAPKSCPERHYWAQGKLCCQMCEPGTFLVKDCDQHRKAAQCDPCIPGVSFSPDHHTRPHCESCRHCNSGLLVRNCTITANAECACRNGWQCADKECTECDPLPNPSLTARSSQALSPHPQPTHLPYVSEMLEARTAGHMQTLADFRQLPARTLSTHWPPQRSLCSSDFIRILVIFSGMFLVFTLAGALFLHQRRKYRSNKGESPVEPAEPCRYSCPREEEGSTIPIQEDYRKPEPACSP
# T6: Q15A
# T6 construct: also called hCD27 Q15A
# T6 receptor: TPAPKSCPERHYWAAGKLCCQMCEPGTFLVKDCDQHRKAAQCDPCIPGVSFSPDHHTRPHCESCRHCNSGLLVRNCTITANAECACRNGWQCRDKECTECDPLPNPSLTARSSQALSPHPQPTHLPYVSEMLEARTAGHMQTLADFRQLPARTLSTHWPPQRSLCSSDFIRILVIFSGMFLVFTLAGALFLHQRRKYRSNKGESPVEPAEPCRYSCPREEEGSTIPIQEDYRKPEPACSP
# T7: K31A
# T7 construct: also called hCD27 K31A
# T7 receptor: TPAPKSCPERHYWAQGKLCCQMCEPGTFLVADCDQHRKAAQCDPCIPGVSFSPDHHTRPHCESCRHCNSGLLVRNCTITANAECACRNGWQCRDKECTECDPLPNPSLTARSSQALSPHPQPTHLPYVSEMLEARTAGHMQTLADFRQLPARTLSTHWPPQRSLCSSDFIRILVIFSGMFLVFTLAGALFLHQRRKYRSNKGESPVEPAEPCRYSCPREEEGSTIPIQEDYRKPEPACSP
# T8: E9A
# T8 construct: also called hCD27 E9A
# T8 receptor: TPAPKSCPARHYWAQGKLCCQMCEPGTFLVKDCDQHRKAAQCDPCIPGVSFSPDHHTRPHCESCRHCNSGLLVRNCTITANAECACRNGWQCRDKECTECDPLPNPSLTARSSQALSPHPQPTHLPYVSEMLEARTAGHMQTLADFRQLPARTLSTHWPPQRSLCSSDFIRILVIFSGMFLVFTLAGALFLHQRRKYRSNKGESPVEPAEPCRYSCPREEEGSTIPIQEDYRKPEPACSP
# T9: R10A
# T9 construct: also called hCD27 R10A
# T9 receptor: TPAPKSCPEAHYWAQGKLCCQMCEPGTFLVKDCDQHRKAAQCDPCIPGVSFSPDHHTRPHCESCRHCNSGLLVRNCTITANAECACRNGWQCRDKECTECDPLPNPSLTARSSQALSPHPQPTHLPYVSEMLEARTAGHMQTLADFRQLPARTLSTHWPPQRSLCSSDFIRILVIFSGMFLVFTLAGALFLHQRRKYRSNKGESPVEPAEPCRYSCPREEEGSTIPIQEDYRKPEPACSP
# T10: N88A
# T10 construct: also called hCD27 N88A
# T10 receptor: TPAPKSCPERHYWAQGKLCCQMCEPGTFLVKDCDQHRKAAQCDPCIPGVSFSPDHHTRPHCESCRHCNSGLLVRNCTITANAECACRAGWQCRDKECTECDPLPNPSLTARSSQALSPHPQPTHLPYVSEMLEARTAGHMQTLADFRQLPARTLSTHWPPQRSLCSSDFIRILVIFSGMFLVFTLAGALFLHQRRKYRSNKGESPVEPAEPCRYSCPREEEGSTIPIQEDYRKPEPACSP
# Experiments:
# Experiment in all cases: flow cytometry, CHO-K1; single column;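 further: CHO-K1 cells transiently transfected with hCD27 alanine mutant constructs, anti-hCD27 antibody binding measured by flow cytometry, 30 min at 4 °C, wild-type hCD27 binding taken as 100%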
# W90A = target: T1, W90A
# Method: (§1) The ability of several anti-hCD27 antibodies to bind to a series of hCD27 alanine mutants was determined using CHO-K1 cells, transiently transfected pCI-neo empty vector, pCI-neo.hCD27 and several pCI-neo.CD27Ala mutant constructs.
# (§2) Detached cells were transferred to 96 wells round-bottomed well plates at approximately 1.2×10⁵ cells/well. After spinning down the cells, discarding the supernatants and re-suspending the cells in the residual volume, the primary antibodies were added and incubated for 30 minutes at 4° C. Cells were washed three times with DPBS/BSA 1%, followed by centrifugation, discarding of the supernatants and re-suspension in the residual volume. […] After washing once, antibody binding was detected using the HTS plate reader (FACS Canto II) and FlowJo software for data analysis. Debris, dead cells and doublets were excluded from the analysis. Binding was expressed as the geometric mean of the FITC signal, relative to antibody binding to hCD27, which was set at 100%.
# G89A = target: T2, G89A
# Method: as §1, §2
# Q41A = target: T3, Q41A
# Method: as §1, §2
# H60A = target: T4, H60A
# Method: as §1, §2
# R93A = target: T5, R93A
# Method: as §1, §2
# Q15A = target: T6, Q15A
# Method: as §1, §2
# K31A = target: T7, K31A
# Method: as §1, §2
# E9A = target: T8, E9A
# Method: as §1, §2
# R10A = target: T9, R10A
# Method: as §1, §2
# N88A = target: T10, N88A
# Method: as §1, §2
binder,measurement,setting,value
"hCD27.15-6B (humanized hCD27.15, human IgG4, Clone 6B) (antibody, V domains shown, humanized version of hCD27.15 from WO2012/004367 with identical CDR regions; also called hCD27.15 (humanized 6B); hCD27.15 6B humanized antibody) VH: QVQLVQSGAEVKKPGASVKVSCKASGFIIKATYMHWVRQAPGQRLEWMGRIDPANGETKYDPKFQVRVTITADTSASTAYMELSSLRSEDTAVYYCARYAWYFDVWGQGTLVTVSS VL: DIQMTQSPSSLSASVGDRVTITCRASENIYSFLAWYQQKPGKAPKLLIYHAKTLAEGVTSRFSGSGSGTDFTLTISSLQPEDSATYYCQHYYGSPLTFGQGTRLEIKR",% of WT hCD27 binding (geo mean FITC),W90A,93.8%
same,% of WT hCD27 binding (geo mean FITC),G89A,97.4%
same,% of WT hCD27 binding (geo mean FITC),Q41A,33.9%
same,% of WT hCD27 binding (geo mean FITC),H60A,82.6%
same,% of WT hCD27 binding (geo mean FITC),R93A,131%
same,% of WT hCD27 binding (geo mean FITC),Q15A,98.6%
same,% of WT hCD27 binding (geo mean FITC),K31A,30.3%
same,% of WT hCD27 binding (geo mean FITC),E9A,58.5%
same,% of WT hCD27 binding (geo mean FITC),R10A,58.9%
same,% of WT hCD27 binding (geo mean FITC),N88A,132%

# Source: patent publication US20190300618A1 (Merck Sharp & Dohme, published 2019)
